Data on 4 molecules can be found in doi:10.1101/2020.05.20.106609 (bioRxiv, 2020).

Sequences and labels used below:
B1: MD17 (scFv, V domains shown)
VH: EVQLLESGGGLVQPGGSLRLSCSASGFTFSTYVMNWVRQAPGKGLEHVSGISSDGGITYYADSVKGRFTISRDNSKNTLYLQMSSLRVEDTAVYYCVKDQDSSSWYDAFDIWGQGTMVTVSS
VL: DIVMTQSPSSLSASVGDRVTITCRASQSISNYLNWYQQKLGKAPKLLTYAASRLQSGVPSRFSASGSGTEFTLTISSLQPEDFATYYCQQSYTTPLTFGGGTKLEIK
B2: MD29 (scFv, V domains shown)
VH: QMQLVQSGGGLVQPGGSLRLSCSASGFTFSTYVMNWVRQAPGKGPEHVSGISSDGGITYYADSVKGRFTISRDNSKNTLYLQMSSLRVEDTAVYYCVKDQDSSSWYDAFDIWGQGTMVTVSS
VL: NIRLTQSPSSLSASVGDRVTITCRATQSISSYLNWYQQKPGKAPNLLIYAASSLQSGVPSRFSGSGSGTDFTLTISSLQPEDFATYYCHQTYTSPYTFGQGTKLEIK
B3: MD47 (scFv, V domains shown)
V domain 1: QMQLVQSGGGLVQPGGSLRLSCAASGFTFSSYAMSWVRQAPGKGLEWVSAISSGGSTYYADSVKGRFTISRDNSKNTLYLQMNSLRAEDTAVYYCAKDLVTAPSYEAFDIWGQGTMITVSS
V domain 2: NFMLTQPPSVSVAPGKTARITCGGNNIGSKSVHWYQQKPGQAPVLVIYYDSDRPSGIPERFSGSNSGNTATLTISRVEAGDEADYYCQVWDSSSHHHVVFGGGTKGTVL
B4: MD62 (scFv, V domains shown)
VH: EVQLVQSGGGLIQPGGSLRLSCAASGVTVSSNYMTWVRQAPGKGLEWVSLIYSGGSTYYADSVKGRFTISRDNSKNTLYLQMNSLRAEDTAVYYCARDLQYYGMDVWGQGTMVTVSS
VL: AIRMTQSPSSVSASVGDRVTITCRASQDIGSWLGWYQQKPGKAPKLLIYAASSLAGGVPSRFSGSGSGTDFTLTISSLQPEDFATYYCQQANSFPLTFGGGTKLEIK

The experiment has as its target SARS-CoV-2 spike protein (SARS-CoV-2 Wuhan-Hu-1 (QHD43416), UniProt P0DTC2, stabilised). In words: ELISA. On the technique in general: An ELISA detects its analyte on a solid surface through an enzyme-linked reagent.
With B1, the binding result was “binds”. As for B2, the entry is “binds”; as for B3, “binds”; as for B4, “binds”.
